The target of this assay is ookinete protein Pfs25 (Plasmodium falciparum NF54 (3D7 entry …, UniProt P13829)). Briefly: ELISA; Pfs25 ELISA; series of mAb concentrations, OD 450 nm.
ookinete protein Pfs25 (Plasmodium falciparum NF54, sequence (P13829 17-196): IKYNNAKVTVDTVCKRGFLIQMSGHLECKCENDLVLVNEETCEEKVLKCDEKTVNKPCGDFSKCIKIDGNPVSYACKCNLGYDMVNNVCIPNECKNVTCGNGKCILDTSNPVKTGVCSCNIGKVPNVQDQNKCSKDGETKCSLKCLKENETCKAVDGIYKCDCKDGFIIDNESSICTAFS

B1: LMIV230-02 human monoclonal antibody (IgG1, kappa) (antibody, V domains shown)
VH: QVQLVQSGAEVKKPGSSVKVSCKASGGTFNSYGISWVRQAPGQGLEWVGGIIPSFGTADYAQKFQGRVTFTTDTSTSTAYMEVSSLRSEDTAVYYCAGSSWSSGTYYGRSAYWGQGTLVTVSS
VL: EIVMTQSPASLALSLGERATINCKSSQSVLYSSNNKNYLAWYQQKPGQPPKLLIYWASTRESGVPDRFSGSGSGTDFTLTISSLQAGDVAVYHCQQYYSTPYSFGQGTKLEIK
B1: the binding result is “no binding”.

B2: LMIV230-01 human monoclonal antibody (IgG1, kappa) (antibody, V domains shown)
VH: QVQLVQSGAEVKKPGSSVKVSCKVSGGTFNTYAIIWVRQAPGQGLEWMGAIIPFQDRGQYAQKFQGRVTITADKSTSTAYMELSSLRSEDTAVYYCAKESGRAVADRWGQGTLVTVSS
VL: DIVMTQSPASLALSLGERATLYCRASHSISSWLAWYQQKPGKAPKLLIYKASTLESGVPSRFSGSGSGTEFTLTISSLQPDDFATYYCQQYKSYPWTFGQGTKLEIK
Regarding B2, the binding result was “no binding”.

(Values after article PMC7979743 (Nature Communications, 2021).)
